Experimental data from patent US20110311522A1.
Substitutions are numbered along the chain they refer to.

Assays:
Experiment in all cases: cell-based or functional assay
[1] = target: hemagglutinin (HA) of virus strain Ck/HK/Yu22/02 (H5N1) (H5N1 avian influenza virus, strain Ck/HK/Yu22/02)
[2] = target: 14 strains of non-H5 viruses (H1~H13, Chicken NDV)
[3] = target: H5 virus strain (fifteen strains of H5N1 viruses)
[4] = target: hemagglutinin (HA) of H5N1 virus strain FJ1.5 (H5N1 avian influenza virus, strain FJ1.5)
[5] = target: hemagglutinin (HA) of H5N1 virus strain GD1.1 (H5N1 avian influenza virus, strain GD1.1)
[6] = target: hemagglutinin (HA) of H5N1 virus strain GD3.1 (H5N1 avian influenza virus, strain GD3.1)
[7] = target: hemagglutinin (HA) of H5N1 virus strain GD4.1 (H5N1 avian influenza virus, strain GD4.1)
[8] = target: hemagglutinin (HA) of H5N1 virus strain HN3.1 (H5N1 avian influenza virus, strain HN3.1)
[9] = target: hemagglutinin (HA) of H5N1 virus strain IDN1.1 (H5N1 avian influenza virus, strain IDN1.1)
[10] = target: hemagglutinin (HA) of H5N1 virus strain IDN3.1 (H5N1 avian influenza virus, strain IDN3.1)
[11] = target: hemagglutinin (HA) of H5N1 virus strain IDN6.1 (H5N1 avian influenza virus, strain IDN6.1)
[12] = target: hemagglutinin (HA) of H5N1 virus strain IDN8.1 (H5N1 avian influenza virus, strain IDN8.1)
[13] = target: hemagglutinin (HA) of H5N1 virus strain Mixed1.1 (H5N1 avian influenza virus, strain Mixed1.1)
[14] = target: hemagglutinin (HA) of H5N1 virus strain QH1.1 (H5N1 avian influenza virus, strain QH1.1)
[15] = target: hemagglutinin (HA) of H5N1 virus strain VNM2-2.1 (H5N1 avian influenza virus, strain VNM2-2.1)
[16] = target: hemagglutinin (HA) of H5N1 virus strain VTM1.1 (H5N1 avian influenza virus, strain VTM1.1)
[17] = target: hemagglutinin (HA) of H5N1 virus strain VTM4.1 (H5N1 avian influenza virus, strain VTM4.1)
[18] = target: hemagglutinin (HA) of H5N1 virus strain YN2.1 (H5N1 avian influenza virus, strain YN2.1)
[19] = target: hemagglutinin (HA) of H5N1 virus strain A1 (H5N1 avian influenza virus, strain A1)
[20] = target: hemagglutinin (HA) of H5N1 virus strain A2 (H5N1 avian influenza virus, strain A2)
[21] = target: hemagglutinin (HA) of H5N1 virus strain A3 (H5N1 avian influenza virus, strain A3)
[22] = target: hemagglutinin (HA) of H5N1 virus strain A6 (H5N1 avian influenza virus, strain A6)
[23] = target: hemagglutinin (HA) of H5N1 virus strain A7 (H5N1 avian influenza virus, strain A7)
[24] = target: hemagglutinin (HA) of H5N1 virus strain A8 (H5N1 avian influenza virus, strain A8)
[25] = target: hemagglutinin (HA) of H5N1 virus strain B1 (H5N1 avian influenza virus, strain B1)
[26] = target: hemagglutinin (HA) of H5N1 virus strain B3 (H5N1 avian influenza virus, strain B3)
[27] = target: hemagglutinin (HA) of H5N1 virus strain B4 (H5N1 avian influenza virus, strain B4)
[28] = target: hemagglutinin (HA) of H5N1 virus strain B6 (H5N1 avian influenza virus, strain B6)
[29] = target: hemagglutinin (HA) of H5N1 virus strain B7 (H5N1 avian influenza virus, strain B7)
[30] = target: hemagglutinin (HA) of H5N1 virus strain B8 (H5N1 avian influenza virus, strain B8)
[31] = target: hemagglutinin (HA) of H5N1 virus strain C2 (H5N1 avian influenza virus, strain C2)
[32] = target: hemagglutinin (HA) of H5N1 virus strain C3 (H5N1 avian influenza virus, strain C3)
[33] = target: hemagglutinin (HA) of H5N1 virus strain D1 (H5N1 avian influenza virus, strain D1)
[34] = target: hemagglutinin (HA) of H5N1 virus strain D2 (H5N1 avian influenza virus, strain D2)
[35] = target: hemagglutinin (HA) of H5N1 virus strain D3 (H5N1 avian influenza virus, strain D3)
[36] = target: hemagglutinin (HA) of H5N1 virus strain E1 (H5N1 avian influenza virus, strain E1)
[37] = target: hemagglutinin (HA) of H5N1 virus strain E2 (H5N1 avian influenza virus, strain E2)
[38] = target: hemagglutinin (HA) of H5N1 virus strain F2 (H5N1 avian influenza virus, strain F2)
[39] = target: hemagglutinin (HA) of H5N1 virus strain F3 (H5N1 avian influenza virus, strain F3)
[40] = target: hemagglutinin (HA) of H5N1 virus strain F4 (H5N1 avian influenza virus, strain F4)
[41] = target: hemagglutinin (HA) of H5N1 virus strain G1 (H5N1 avian influenza virus, strain G1)
[42] = target: hemagglutinin (HA) of H5N1 virus strain H2 (H5N1 avian influenza virus, strain H2)

B1: 8G9 chimeric antibody (antibody, V domains shown)
VH: QVQLQQPGVELVRPGASVKLSCKASGYTFTSFWMNWVKQRPDQGLEWIGRIDPYDSETHYNQKFKDKAILTVDKSSSTAYMQLSSLTSEDSAVYYCGRGIATLMVLPDYWGQGTSVTVSS
VL: DILMTQSPSSMSVSLGDTVSITCHASQDISSNMGWLQQKPGKSLKGLIYHGTNLEDGVPSRFSGSGSGPDYSLTISSLESEDFADYYCVQYIQFPWTFGGGTKLEIKR
hemagglutination inhibition (HI) activity (fold dilution) [1]: 16

B2: monoclonal antibody 20A11 (antibody, V domains shown)
VH: QVQLQQSGAELMKPGASVKISCKATGYTFSGHWIEWVKQRPGHGLEWIGEILPGSGNIHYNEKFKGKATFAADTSSNTAYMQLSSLTSEDSAVYYCARLGTTAVERDWYFDVWGQGTSVTVSS
VL: DIVMTQSQKFMSASVGDRVSVTCKASQNVGTHLAWYQQKPGQSPKALIYSASYRYSGVPDRFTGSGSGTDFTLTISNVQSGDLADYFCQQYNNFPLTFGAGTKLEIKR
Positive number/total virus number, hemagglutination inhibition assay (of 14 virus strains positive) [2]: 0 | Positive number/total virus number, hemagglutination inhibition assay (of 15 virus strains positive) [3]: 15 | Hamaglutinin inhibition titer [4]: 12800 titer | Neutralization titer [4]: 12800 titer | Hamaglutinin inhibition titer [5]: 12800 titer | Neutralization titer [5]: 12800 titer | Hamaglutinin inhibition titer [6]: 12800 titer | Neutralization titer [6]: 12800 titer | Hamaglutinin inhibition titer [7]: 12800 titer | Neutralization titer [7]: 12800 titer | Hamaglutinin inhibition titer [8]: 12800 titer | Neutralization titer [8]: 6400 titer | Hamaglutinin inhibition titer [9]: 12800 titer | Neutralization titer [9]: 12800 titer | Hamaglutinin inhibition titer [10]: 12800 titer | Neutralization titer [10]: 12800 titer | Hamaglutinin inhibition titer [11]: 12800 titer | Neutralization titer [11]: 12800 titer | Hamaglutinin inhibition titer [12]: 12800 titer | Neutralization titer [12]: 12800 titer | Hamaglutinin inhibition titer [13]: 12800 titer | Neutralization titer [13]: 12800 titer | Hamaglutinin inhibition titer [14]: 12800 titer | Neutralization titer [14]: 12800 titer | Hamaglutinin inhibition titer [15]: 12800 titer | Neutralization titer [15]: 12800 titer | Hamaglutinin inhibition titer [16]: 12800 titer | Neutralization titer [16]: 12800 titer | Hamaglutinin inhibition titer [17]: 12800 titer | Neutralization titer [17]: 12800 titer | Hamaglutinin inhibition titer [18]: 12800 titer | Neutralization titer [18]: 12800 titer

B3: 13D4 chimeric antibody SV (antibody, V domains shown)
VH: B2 VH
VL: B2 VL
HI titer (hemagglutinin inhibition assay) (n (HI titer = 2^n)) [19]: > 8 | HI titer (hemagglutinin inhibition assay) (n (HI titer = 2^n)) [20]: 7 | HI titer (hemagglutinin inhibition assay) (n (HI titer = 2^n)) [21]: 5 | HI titer (hemagglutinin inhibition assay) (n (HI titer = 2^n)) [22]: 5.5 | HI titer (hemagglutinin inhibition assay) (n (HI titer = 2^n)) [23]: 3.5 | HI titer (hemagglutinin inhibition assay) (n (HI titer = 2^n)) [24]: 6 | HI titer (hemagglutinin inhibition assay) (n (HI titer = 2^n)) [25]: > 8 | HI titer (hemagglutinin inhibition assay) (n (HI titer = 2^n)) [26]: 2 | HI titer (hemagglutinin inhibition assay) (n (HI titer = 2^n)) [27]: 4 | HI titer (hemagglutinin inhibition assay) (n (HI titer = 2^n)) [28]: < 8 | HI titer (hemagglutinin inhibition assay) (n (HI titer = 2^n)) [29]: 6.5 | HI titer (hemagglutinin inhibition assay) (n (HI titer = 2^n)) [30]: 6 | HI titer (hemagglutinin inhibition assay) (n (HI titer = 2^n)) [31]: 4 | HI titer (hemagglutinin inhibition assay) (n (HI titer = 2^n)) [32]: 4 | HI titer (hemagglutinin inhibition assay) (n (HI titer = 2^n)) [33]: 5 | HI titer (hemagglutinin inhibition assay) (n (HI titer = 2^n)) [34]: 5 | HI titer (hemagglutinin inhibition assay) (n (HI titer = 2^n)) [35]: 5.5 | HI titer (hemagglutinin inhibition assay) (n (HI titer = 2^n)) [36]: 6 | HI titer (hemagglutinin inhibition assay) (n (HI titer = 2^n)) [37]: 3 | HI titer (hemagglutinin inhibition assay) (n (HI titer = 2^n)) [38]: 5 | HI titer (hemagglutinin inhibition assay) (n (HI titer = 2^n)) [39]: 6.5 | HI titer (hemagglutinin inhibition assay) (n (HI titer = 2^n)) [40]: 1 | HI titer (hemagglutinin inhibition assay) (n (HI titer = 2^n)) [41]: 3 | HI titer (hemagglutinin inhibition assay) (n (HI titer = 2^n)) [42]: 4

B4: 13D4 chimeric antibody LV (antibody, V domains shown)
VH: B2 VH with S118L
VL: B2 VL
HI titer (hemagglutinin inhibition assay) (n (HI titer = 2^n)) [19]: > 8 | HI titer (hemagglutinin inhibition assay) (n (HI titer = 2^n)) [20]: 7 | HI titer (hemagglutinin inhibition assay) (n (HI titer = 2^n)) [21]: 6 | HI titer (hemagglutinin inhibition assay) (n (HI titer = 2^n)) [22]: 6.5 | HI titer (hemagglutinin inhibition assay) (n (HI titer = 2^n)) [23]: 4 | HI titer (hemagglutinin inhibition assay) (n (HI titer = 2^n)) [24]: 7 | HI titer (hemagglutinin inhibition assay) (n (HI titer = 2^n)) [25]: > 8 | HI titer (hemagglutinin inhibition assay) (n (HI titer = 2^n)) [26]: 2 | HI titer (hemagglutinin inhibition assay) (n (HI titer = 2^n)) [27]: 4 | HI titer (hemagglutinin inhibition assay) (n (HI titer = 2^n)) [28]: > 8 | HI titer (hemagglutinin inhibition assay) (n (HI titer = 2^n)) [29]: 6 | HI titer (hemagglutinin inhibition assay) (n (HI titer = 2^n)) [30]: 4 | HI titer (hemagglutinin inhibition assay) (n (HI titer = 2^n)) [31]: 3 | HI titer (hemagglutinin inhibition assay) (n (HI titer = 2^n)) [32]: 4 | HI titer (hemagglutinin inhibition assay) (n (HI titer = 2^n)) [33]: 4 | HI titer (hemagglutinin inhibition assay) (n (HI titer = 2^n)) [34]: 4 | HI titer (hemagglutinin inhibition assay) (n (HI titer = 2^n)) [35]: 4 | HI titer (hemagglutinin inhibition assay) (n (HI titer = 2^n)) [36]: 5.5 | HI titer (hemagglutinin inhibition assay) (n (HI titer = 2^n)) [37]: 3 | HI titer (hemagglutinin inhibition assay) (n (HI titer = 2^n)) [38]: 5.5 | HI titer (hemagglutinin inhibition assay) (n (HI titer = 2^n)) [39]: 6 | HI titer (hemagglutinin inhibition assay) (n (HI titer = 2^n)) [41]: 2 | HI titer (hemagglutinin inhibition assay) (n (HI titer = 2^n)) [42]: 3

B5: 13D4 single chain antibody (scFv)
scFv: QVQLQQSGAELMKPGASVKISCKATGYTFSGHWIEWVKQRPGHGLEWIGEILPGSGNIHYNEKFKGKATFAADTSSNTAYMQLSSLTSEDSAVYYCARLGTTAVERDWYFDVWGQGTTVTESLEDPRVPSSNSGGGGSGGGGSGGGGSDIVMTQSQKFMSASVGDRVSVTCKASQNVGTHLAWYQQKPGQSPKALIYSASYRYSGVPDRFTGSGSGTDFTLTISNVQSGDLADYFCQQYNNFPLTFGAGTKLEIKR
hemagglutination inhibition (HI) activity (fold dilution (from 0.18 mg/ml)) [1]: 8
